In publication PMC2175169 (The Journal of Cell Biology, 2000):

Biological target: authentic E1A 243R protein, purified from bacteria (adenovirus, UniProt P03255-2 1-243)
Assay: pull-down

B1: GST-p21 Δ1-80 (domain or fragment)
chain: TGPRRGRDELGGGRRPGTSPALLQGTAEEDHVDLSLSCTLVPRSGEQAEGSPGGPGDSQGRKRRQTSMTDFYHSKRRLIFSKRKP
binding result: binds
